Laboratory results reported in patent US20170014494A1.

Target: SERCA2a wild type (WT), expressed from a plasmid in HEK293 cells
Test: cell-based or functional assay

EC50 (Ca2+) of ATPase activity of WT SERCA2a with co-expression of SUMO1: 110 nM
Substance: flag-tagged SUMO1 (from UniProt P63165 2-97)
